# pKd: −log10 of the molar value. Read-outs that look alike come from different tables or passages of the source.
# Target: EGFR (ERBB1) (UniProt P00533)
Sequence,"pKd (N = BndU [n positions 2,8,9,11,15,20,21,23,24,28,29,31,32,33,37,38 = modified dU])","pKd (N = BndU (5-benzylaminocarbonyl-2'-deoxyuridine), text prints natural T in the 5' region CCACGCTGGGTGGGTC while listing shows n there [n positions 7,11,15,18,24,25,27,31,36,37,39,40,44,45,47,48,49,53,54 = modified dU])"
ATCGAGGTTGTGGGTCGGATTGTTGGATTCTTTAAGTTGGGAACACCAAC [EGFR aptamer SEQ ID NO: 5 (50-mer truncate)],9.28,
CCACGCTGGGTGGGTCATCGAGGTTGTGGGTCGGATTGTTGGATTCTTTAAGTTGGGAACACCAACCGAGAACG [EGFR aptamer SEQ ID NO: 4],,9.91

# — US20140296501
